Measured values published in EP4603109A1 (Sichuan Kelun-Biotech Biopharmaceutical Co., Ltd., dated 2024).

What was measured:
[1] = target: T1, B7-H3 on human tumor cell lines (HT29, NCI-N87, HCC1806, HCC827, A375) (human, UniProt Q5ZPR3 29-534); assay: flow cytometry on HT29 cells (experiment 2)
T1 construct: whole, on cells
T1 sequence (looked up): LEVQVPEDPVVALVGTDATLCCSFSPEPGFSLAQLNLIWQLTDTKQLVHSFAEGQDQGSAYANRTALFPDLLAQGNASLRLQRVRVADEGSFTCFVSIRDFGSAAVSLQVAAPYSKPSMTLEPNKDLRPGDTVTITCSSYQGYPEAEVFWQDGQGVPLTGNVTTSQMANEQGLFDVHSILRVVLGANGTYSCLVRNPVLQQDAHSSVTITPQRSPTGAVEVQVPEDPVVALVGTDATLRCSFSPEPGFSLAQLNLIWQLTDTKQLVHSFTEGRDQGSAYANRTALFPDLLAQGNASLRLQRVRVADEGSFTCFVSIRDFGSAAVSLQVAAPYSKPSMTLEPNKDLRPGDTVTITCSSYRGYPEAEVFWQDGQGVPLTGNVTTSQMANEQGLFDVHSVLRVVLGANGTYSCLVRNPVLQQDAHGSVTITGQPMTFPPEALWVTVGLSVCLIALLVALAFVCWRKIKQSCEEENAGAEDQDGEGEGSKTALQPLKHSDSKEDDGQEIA

[2] = target: T1, B7-H3 on human tumor cell lines (HT29, …); assay: flow cytometry on HCC827 cells (experiment 2)
rat B7-H3-his protein = target: T2, rat B7-H3-his protein (rat, UniProt Q7TPB4 29-248, limits assumed); assay: BLI (ForteBio), ADC captured on Protein A sensor (result 2)
T2 construct: not shown: His tag
T2 sequence (looked up): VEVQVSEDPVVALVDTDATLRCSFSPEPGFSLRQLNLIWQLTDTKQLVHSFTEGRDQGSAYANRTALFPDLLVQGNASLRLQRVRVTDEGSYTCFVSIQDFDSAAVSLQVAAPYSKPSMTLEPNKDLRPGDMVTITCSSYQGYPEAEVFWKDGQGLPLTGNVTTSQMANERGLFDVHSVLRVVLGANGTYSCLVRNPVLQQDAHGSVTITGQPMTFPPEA

[3] = target: T3, human B7-H3-2Ig-his protein (human, UniProt Q5ZPR3-2 29-245, limits assumed); assay: BLI (ForteBio), ADC on Protein A sensor, antigen 200-3.125 nM, 1:1 global fit (result 2)
T3 construct: the 2Ig form is its isoform 2; not shown: His tag
T3 sequence (looked up): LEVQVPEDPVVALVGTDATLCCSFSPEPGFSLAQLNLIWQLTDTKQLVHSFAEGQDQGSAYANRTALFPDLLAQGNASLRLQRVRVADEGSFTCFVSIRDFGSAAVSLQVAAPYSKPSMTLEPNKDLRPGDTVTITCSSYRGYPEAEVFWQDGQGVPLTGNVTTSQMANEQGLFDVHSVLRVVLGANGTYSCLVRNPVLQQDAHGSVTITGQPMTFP

monkey B7-H3-his protein = monkey B7-H3-his protein (monkey); assay: as above
[4] = target: T4, human B7-H3-4Ig-his protein (human, UniProt Q5ZPR3 29-461, limits assumed); assay: as above
T4 construct: not shown: His tag
T4 sequence (looked up): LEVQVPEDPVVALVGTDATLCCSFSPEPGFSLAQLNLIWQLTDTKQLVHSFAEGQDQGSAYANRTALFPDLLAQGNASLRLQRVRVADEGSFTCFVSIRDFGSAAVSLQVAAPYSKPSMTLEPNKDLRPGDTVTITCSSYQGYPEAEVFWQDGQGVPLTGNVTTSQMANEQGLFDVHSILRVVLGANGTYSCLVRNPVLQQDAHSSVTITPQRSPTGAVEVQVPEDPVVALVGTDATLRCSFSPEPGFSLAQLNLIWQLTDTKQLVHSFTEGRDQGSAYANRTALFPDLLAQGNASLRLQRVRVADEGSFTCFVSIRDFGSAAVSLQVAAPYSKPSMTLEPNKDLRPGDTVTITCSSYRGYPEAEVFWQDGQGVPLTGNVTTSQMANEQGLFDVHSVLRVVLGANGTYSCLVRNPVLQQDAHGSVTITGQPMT

B1: ADC 17 (2#8890-B-03, DAR 8) (antibody, human IgG1, kappa, V domains shown)
VH: QVQLQESGPGLVQPSGTLSLTCAVSGGSDSSTNWWTWVRQSPGQGLEWIGEISPIGFTSYSPSLRSRVTISVDKSKTQFSLKLSSVTAADTAVYYCARDRLYFAFWGQGTLVTVSS
VL: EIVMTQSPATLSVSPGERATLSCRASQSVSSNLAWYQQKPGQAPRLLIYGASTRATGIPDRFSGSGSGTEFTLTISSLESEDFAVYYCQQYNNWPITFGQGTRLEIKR
modifications: cysteine sulfhydryls carry drug-linker B-03 (sites not stated; DAR 7.82 per antibody)
EC50 [1]: 3.21 ng/mL | EC50 [2]: 8.05 ng/mL | binding result (rat B7-H3-his protein): no binding (tested: 200 nM (highest antigen concentration)) | Kd [3]: 42 nM | Kd (monkey B7-H3-his protein): 2.57 nM | Kd [4]: 1.04 nM
